Where two headings read alike, the source gives them in different places.
Columns and labels:
[1] = target: HIV-1 Env of strain Ce703010054_2A2 (HIV-1)
[2] = target: HIV-1 Env of strain PVO.4 (HIV-1)
[3] = target: HIV-1 Env of strain 0815.v3.c3 (HIV-1)
[4] = target: HIV-1 Env of strain X2131_C1_B5 (HIV-1)
[5] = target: HIV-1 Env of strain 6811.v7.c18 (HIV-1)
[6] = target: HIV-1 Env of strain 231966.c02 (HIV-1)
[7] = target: HIV-1 Env of strain 6480.v4.c25 (HIV-1)
[8] = target: HIV-1 Env of strain Q842.d12 (HIV-1)
[9] = target: Env (gp120) of HIV-1 strain TRO.11 (HIV-1)
[10] = target: Env (gp120) of HIV-1 strain SC422661.8 (HIV-1)
[11] = target: Env (gp120) of HIV-1 strain QH0692.42 (HIV-1)
[12] = target: Env (gp120) of HIV-1 strain T257-31 (HIV-1)
[13] = target: Env (gp120) of HIV-1 strain AC10.0.29 (HIV-1)
[14] = target: Env (gp120) of HIV-1 strain ZM214M.PL15 (HIV-1)
[15] = target: Env (gp120) of HIV-1 strain Du156.12 (HIV-1)
[16] = target: Env (gp120) of HIV-1 strain ZM197M.PB7 (HIV-1)
[17] = target: Env (gp120) of HIV-1 strain ZM109F.PB4 (HIV-1)
[18] = target: Env (gp120) of HIV-1 strain ZM53M.PB12 (HIV-1)
[19] = target: Env (gp120) of HIV-1 strain ZM249M.PL1 (HIV-1)
[20] = target: Env (gp120) of HIV-1 strain ZM135M.PL10a (HIV-1)
[21] = target: Env (gp120) of HIV-1 strain ZM214M.PL15 (HIV-1); remark: listed apart in the source
[22] = target: Env (gp120) of HIV-1 strain 3016.v5.c45 (HIV-1)
[23] = target: Env (gp120) of HIV-1 strain C2101.c01 (HIV-1)
[24] = target: HIV-1 Env of strain T257-31 (HIV-1)
[25] = target: HIV-1 Env of strain TRO.11 (HIV-1)
[26] = target: HIV-1 Env of strain SC422661.8 (HIV-1)
[27] = target: HIV-1 Env of strain ZM214M.PL15.11 (HIV-1)
[28] = target: HIV-1 Env of strain CAP45.2.00.G3 (HIV-1)
[29] = target: HIV-1 Env of strain QH0692.42 (HIV-1)
[30] = target: HIV-1 Env of strain AC10.0.29 (HIV-1)
[31] = target: Env (gp120) of HIV-1 strain Du172.17 (HIV-1)
[32] = target: Env (gp120) of HIV-1 strain CAP210.2.00.E8 (HIV-1)
[33] = target: Env (gp120) of HIV-1 strain CAP45.2.00.G3 (HIV-1)
[34] = target: Env (gp120) of HIV-1 strain 3718.v3.c11 (HIV-1)
[35] = target: Env (gp120) of HIV-1 strain T255-34 (HIV-1)
[36] = target: gp160 of HIV-1 strain YU2 with a substitution of 458gp120 (HIV-1)

NIH45-46 G54F IgG (antibody)
In vitro neutralization IC80 [1]: 0.07 µg/mL | In vitro neutralization IC80 [2]: 0.25 µg/mL | In vitro neutralization IC80 [3]: 0.014 µg/mL | In vitro neutralization IC80 [4]: 0.41 µg/mL | In vitro neutralization IC80 [5]: 0.063 µg/mL | In vitro neutralization IC80 [6]: 0.24 µg/mL | In vitro neutralization IC80 [7]: 0.046 µg/mL | In vitro neutralization IC80 [8]: 0.039 µg/mL

NIH45-46 G54W IgG (antibody)
In vitro neutralization IC80 [1]: 0.077 µg/mL | In vitro neutralization IC80 [2]: 0.16 µg/mL | In vitro neutralization IC80 [3]: 0.003 µg/mL | In vitro neutralization IC80 [4]: 0.24 µg/mL | In vitro neutralization IC80 [5]: 0.033 µg/mL | In vitro neutralization IC80 [6]: 0.11 µg/mL | In vitro neutralization IC80 [7]: 0.021 µg/mL | In vitro neutralization IC80 [8]: 0.025 µg/mL

NIH45-46 G54Y IgG (antibody)
In vitro neutralization IC80 [1]: 0.07 µg/mL | In vitro neutralization IC80 [2]: 0.18 µg/mL | In vitro neutralization IC80 [3]: 0.015 µg/mL | In vitro neutralization IC80 [4]: 0.39 µg/mL | In vitro neutralization IC80 [5]: 0.059 µg/mL | In vitro neutralization IC80 [6]: 0.23 µg/mL | In vitro neutralization IC80 [7]: 0.051 µg/mL | In vitro neutralization IC80 [8]: 0.045 µg/mL

NIH45-46 IgG (antibody)
neutralization IC50 [9]: 1.9 µg/mL | neutralization IC50 [10]: 0.05 µg/mL | neutralization IC50 [11]: 0.7 µg/mL | neutralization IC50 [12]: 0.5 µg/mL | neutralization IC50 [13]: 0.9 µg/mL | neutralization IC50 [14]: 0.3 µg/mL | neutralization IC50 [15]: 0.01 µg/mL | neutralization IC50 [16]: 0.14 µg/mL | neutralization IC50 [17]: 0.22 µg/mL | neutralization IC50 [18]: 0.65 µg/mL | neutralization IC50 [19]: 0.02 µg/mL | neutralization IC50 [20]: 0.36 µg/mL | neutralization IC50 [21]: 0.05 µg/mL | neutralization IC50 [22]: > 30 µg/mL | neutralization IC50 [23]: 12.8 µg/mL

NIH45-46 IgG (wild type) (antibody)
In vitro neutralization IC80 [1]: 0.538 µg/mL | In vitro neutralization IC80 [2]: 0.41 µg/mL | In vitro neutralization IC80 [3]: 0.052 µg/mL | In vitro neutralization IC80 [4]: 0.88 µg/mL | In vitro neutralization IC80 [5]: 0.113 µg/mL | In vitro neutralization IC80 [6]: 9.64 µg/mL | In vitro neutralization IC80 [7]: 0.1 µg/mL | In vitro neutralization IC80 [8]: 0.073 µg/mL | In vitro neutralization IC50 [24]: 0.5 µg/mL | In vitro neutralization IC50 [25]: 1.9 µg/mL | In vitro neutralization IC50 [26]: 0.05 µg/mL | In vitro neutralization IC50 [27]: 0.5 µg/mL | In vitro neutralization IC50 [28]: > 50 µg/mL | In vitro neutralization IC50 [29]: 0.7 µg/mL | In vitro neutralization IC50 [30]: 0.9 µg/mL

NIH45-46^G54F IgG (antibody)
neutralization IC50 [31]: 16 µg/mL

NIH45-46^G54W IgG (antibody)
neutralization IC50 [32]: > 50 µg/mL | neutralization IC50 [33]: 32.2 µg/mL | improvement of neutralization potency over NIH45-46 [34]: 2000 fold | improvement of neutralization potency over NIH45-46 [35]: > 700 fold | neutralization of pseudovirus carrying mutant gp160 [36]: > 1500 fold | neutralization IC50 [31]: 0.9 µg/mL

NIH45-46^G54Y IgG (antibody)
neutralization IC50 [33]: > 50 µg/mL
